We go through five molecules from patent publication US20240011017A1 (Genentech, published 2024).

First the molecules themselves.
B2: VZV protein gB, soluble (captured on beads or assayed directly in supernatants) (other)
chain: VSPSSFYESLQVEPTQSEDITRSAHLGDGDEIREAIHKSQDAETKPTFYVCPPPTGSTIVRLEPTRTCPDYHLGKNFTEGIAVVYKENIAAYKFKATVYYKDVIVSTAWAGSSYTQITNRYADRVPIPVSEITDTIDKFGKCSSKATYVRNNHKVEAFNEDKNPQDMPLIASKYNSVGSKAWHTTNDTYMVAGTPGTYRTGTSVNCIIEEVEARSIFPYDSFGLSTGDIIYMSPFFGLRDGAYREHSNYAMDRFHQFEGYRQRDLDTRALLEPAARNFLVTPHLTVGWNWKPKRTEVCSLVKWREVEDVVRDEYAHNFRFTMKTLSTTFISETNEFNLNQIHLSQCVKEEARAIINRIYTTRYNSSHVRTGDIQTYLARGGFVVVFQPLLSNSLARLYLQELVRENTNHSPQKHPTRNTRSRRSVPVELRANRTITTTSSVEFAMLQFTYDHIQEHVNEMLARISSSWCQLQNRERALWSGLFPINPSALASTILDQRVKARILGDVISVSNCPELGSDTRIILQNSMRVSGSTTRCYSRPLISIVSLNGSGTVEGQLGTDNELIMSRDLLEPCVANHKRYFLFGHHYVYYEDYRYVREIAVHDVGMISTYVDLNLTLLKDREFMPLQVYTRDELRDTGLLDYSEIQRRNQMHSLRFYDIDKVVQYDSGTAIMQGMAQFFQGLGTAGQAVGHVVLGATGALLSTVHGFTTFLSNP
notes: also called VZV gB

Test [1] concerns the target T1, VZV protein gC, soluble (captured on beads or assayed directly in supernatants) (Varicella zoster virus, UniProt P09256 54-559).
T1 construct: also called VZV gC
T1 sequence: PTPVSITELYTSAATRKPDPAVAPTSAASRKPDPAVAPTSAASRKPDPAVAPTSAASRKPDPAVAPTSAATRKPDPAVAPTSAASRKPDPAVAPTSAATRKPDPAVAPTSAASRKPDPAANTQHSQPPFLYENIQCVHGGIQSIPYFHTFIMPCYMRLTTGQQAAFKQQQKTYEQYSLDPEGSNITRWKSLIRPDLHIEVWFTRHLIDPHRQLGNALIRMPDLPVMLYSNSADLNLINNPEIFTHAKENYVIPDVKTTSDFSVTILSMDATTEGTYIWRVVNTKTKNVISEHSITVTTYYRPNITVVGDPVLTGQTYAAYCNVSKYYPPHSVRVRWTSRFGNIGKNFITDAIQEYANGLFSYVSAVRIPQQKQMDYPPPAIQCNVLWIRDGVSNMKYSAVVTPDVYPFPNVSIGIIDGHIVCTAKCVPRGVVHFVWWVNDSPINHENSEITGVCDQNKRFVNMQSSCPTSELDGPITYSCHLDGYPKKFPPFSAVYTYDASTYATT
In words: cell-based immunofluorescence validation (FIGS. 14B and 22): soluble gC on cells with ICAM1.

Test [2] addresses T2, MUSK expressed on cells (gD-GPI construct or full-length protein) (human, UniProt O15146 24-869).
T2 construct: whole, on cells
T2 sequence: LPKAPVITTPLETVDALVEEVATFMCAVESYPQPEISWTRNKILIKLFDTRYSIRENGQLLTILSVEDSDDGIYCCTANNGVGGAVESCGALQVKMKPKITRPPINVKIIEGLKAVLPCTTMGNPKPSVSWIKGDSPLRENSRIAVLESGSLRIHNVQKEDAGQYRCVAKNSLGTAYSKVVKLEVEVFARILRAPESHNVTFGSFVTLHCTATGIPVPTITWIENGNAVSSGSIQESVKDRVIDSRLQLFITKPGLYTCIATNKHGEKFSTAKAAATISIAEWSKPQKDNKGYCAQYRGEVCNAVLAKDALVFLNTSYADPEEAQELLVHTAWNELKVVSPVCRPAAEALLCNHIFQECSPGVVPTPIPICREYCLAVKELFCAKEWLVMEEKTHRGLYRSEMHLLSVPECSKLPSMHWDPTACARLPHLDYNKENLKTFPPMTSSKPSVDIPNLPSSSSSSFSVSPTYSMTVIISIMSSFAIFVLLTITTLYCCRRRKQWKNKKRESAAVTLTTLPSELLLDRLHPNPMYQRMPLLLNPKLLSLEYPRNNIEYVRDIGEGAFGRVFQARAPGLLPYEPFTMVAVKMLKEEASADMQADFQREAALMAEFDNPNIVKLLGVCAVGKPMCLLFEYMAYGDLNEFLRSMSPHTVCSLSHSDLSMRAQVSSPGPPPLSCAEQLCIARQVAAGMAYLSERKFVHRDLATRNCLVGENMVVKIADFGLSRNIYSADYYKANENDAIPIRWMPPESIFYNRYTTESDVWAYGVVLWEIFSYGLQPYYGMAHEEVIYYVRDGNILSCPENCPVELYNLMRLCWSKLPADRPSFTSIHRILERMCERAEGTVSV
As to the kind of experiment: cell-based immunofluorescence validation (FIG. 15): gB on beads or in supernatants, MUSK on cells.

The target in test [3] is B2. As to the kind of experiment: cell-based immunofluorescence validation (FIG. 16): gB on beads or in supernatants, HAVCR1 on cells.
The target of test [4] is T3, HHV8 protein KCP expressed on cells (gD-GPI construct or full-length protein) (Human herpesvirus 8, UniProt Q2HRD4 20-522).
T3 construct: also called HHV8 KCP
T3 sequence: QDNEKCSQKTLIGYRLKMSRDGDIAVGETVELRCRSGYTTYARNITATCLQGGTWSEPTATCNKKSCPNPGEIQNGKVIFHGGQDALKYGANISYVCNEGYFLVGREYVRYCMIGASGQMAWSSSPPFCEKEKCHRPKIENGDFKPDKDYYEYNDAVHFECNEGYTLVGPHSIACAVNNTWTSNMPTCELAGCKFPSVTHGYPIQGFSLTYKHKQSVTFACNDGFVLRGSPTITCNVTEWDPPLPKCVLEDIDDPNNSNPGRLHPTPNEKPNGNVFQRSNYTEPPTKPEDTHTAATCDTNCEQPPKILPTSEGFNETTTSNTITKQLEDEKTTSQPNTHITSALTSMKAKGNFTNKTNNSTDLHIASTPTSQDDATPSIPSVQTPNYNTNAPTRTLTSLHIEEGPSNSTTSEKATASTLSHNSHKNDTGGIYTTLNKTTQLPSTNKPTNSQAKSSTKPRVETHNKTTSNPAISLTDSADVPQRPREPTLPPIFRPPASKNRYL
In words: cell-based immunofluorescence validation (FIG. 17): receptor in supernatants, KCP on cells.

B1: ICAM1 expressed on cells (gD-GPI construct or full-length protein) (receptor)
chain: QTSVSPSKVILPRGGSVLVTCSTSCDQPKLLGIETPLPKKELLLPGNNRKVYELSNVQEDSQPMCYSNCPDGQSTAKTFLTVYWTPERVELAPLPSWQPVGKNLTLRCQVEGGAPRANLTVVLLRGEKELKREPAVGEPAEVTTTVLVRRDHHGANFSCRTELDLRPQGLELFENTSAPYQLQTFVLPATPPQLVSPRVLEVDTQGTVVCSLDGLFPVSEAQVHLALGDQRLNPTVTYGNDSFSAKASVSVTAEDEGTQRLTCAVILGNQSQETLQTVTIYSFPAPNVILTKPEVSEGTEVTVKCEAHPRAKVTLNGVPAQPLGPRAQLLLKATPEDNGRSFSCSATLEVAGQLIHKNQTRELRVLYGPRLDERDCPGNWTWPENSQQTPMCQAWGNPLPELKCLKDGTFPLPIGESVTVTRDLEGTYLCRARSTQGEVTRKVTVNVLSPRYEIVIITVVAAAVIMGTAGLSTYLYNRQRKIKKYRLQQAQKGTPMKPNTQATPP
notes: whole, on cells
On to B1, for which the binding result in test [1] is on record as “binds”.

Consider B2, for which, in test [2], the binding result is recorded as “binds”.

B3: HAVCR1 expressed on cells (gD-GPI construct or full-length protein) (receptor)
chain: SVKVGGEAGPSVTLPCHYSGAVTSMCWNRGSCSLFTCQNGIVWTNGTHVTYRKDTRYKLLGDLSRRDVSLTIENTAVSDSGVYCCRVEHRGWFNDMKITVSLEIVPPKVTTTPIVTTVPTVTTVRTSTTVPTTTTVPMTTVPTTTVPTTMSIPTTTTVLTTMTVSTTTSVPTTTSIPTTTSVPVTTTVSTFVPPMPLPRQNHEPVATSPSSPQPAETHPTTLQGAIRREPTSSPLYSYTTDGNDTVTESSDGLWNNNQTQLFLEHSLLTANTTKGIYAGVCISVLVLLALLGVIIAKKYFFKKEVQQLSVSFSSLQIKALQNAVEKEVQAEDNIYIENSLYATD
notes: whole, on cells
Consider B3, for which, in test [3], the binding result was “binds”.

B4: FLRT3 (in supernatants) (receptor)
chain: KSCPSVCRCDAGFIYCNDRFLTSIPTGIPEDATTLYLQNNQINNAGIPSDLKNLLKVERIYLYHNSLDEFPTNLPKYVKELHLQENNIRTITYDSLSKIPYLEELHLDDNSVSAVSIEEGAFRDSNYLRLLFLSRNHLSTIPWGLPRTIEELRLDDNRISTISSPSLQGLTSLKRLVLDGNLLNNHGLGDKVFFNLVNLTELSLVRNSLTAAPVNLPGTNLRKLYLQDNHINRVPPNAFSYLRQLYRLDMSNNNLSNLPQGIFDDLDNITQLILRNNPWYCGCKMKWVRDWLQSLPVKVNVRGLMCQAPEKVRGMAIKDLNAELFDCKDSGIVSTIQITTAIPNTVYPAQGQWPAPVTKQPDIKNPKLTKDHQTTGSPSRKTITITVKSVTSDTIHISWKLALPMTALRLSWLKLGHSPAFGSITETIVTGERSEYLVTALEPDSPYKVCMVPMETSNLYLFDETPVCIETETAPLRMYNPTTTLNREQEKEPYKNPNLP
B4: in test [4], the binding result is given as “binds”.

B5: LILRB1 (in supernatants) (receptor)
chain: GHLPKPTLWAEPGSVITQGSPVTLRCQGGQETQEYRLYREKKTALWITRIPQELVKKGQFPIPSITWEHAGRYRCYYGSDTAGRSESSDPLELVVTGAYIKPTLSAQPSPVVNSGGNVILQCDSQVAFDGFSLCKEGEDEHPQCLNSQPHARGSSRAIFSVGPVSPSRRWWYRCYAYDSNSPYEWSLPSDLLELLVLGVSKKPSLSVQPGPIVAPEETLTLQCGSDAGYNRFVLYKDGERDFLQLAGAQPQAGLSQANFTLGPVSRSYGGQYRCYGAHNLSSEWSAPSDPLDILIAGQFYDRVSLSVQPGPTVASGENVTLLCQSQGWMQTFLLTKEGAADDPWRLRSTYQSQKYQAEFPMGPVTSAHAGTYRCYGSQSSKPYLLTHPSDPLELVVSGPSGGPSSPTTGPTSTSGPEDQPLTPTGSDPQSGLGRHLGV
Regarding B5, in test [4], the binding result was “binds”.
